This passage reports Kd results from patent US20080260731A1.

This experiment concerns the target human V158 FcγRIIIa (FcγR-His) (human) (UniProt P08637). As to the kind of experiment: Biacore SPR.

Sequence of human V158 FcγRIIIa (FcγR-His) (human) (P08637 17-208 F176V limits assumed): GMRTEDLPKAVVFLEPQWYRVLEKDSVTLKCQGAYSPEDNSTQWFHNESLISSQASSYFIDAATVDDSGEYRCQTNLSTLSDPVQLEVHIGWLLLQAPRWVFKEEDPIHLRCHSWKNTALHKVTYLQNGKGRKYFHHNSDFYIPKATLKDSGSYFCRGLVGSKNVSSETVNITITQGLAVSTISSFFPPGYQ

“4G7 IgG1 antibody (chimeric, murine H0/L0 variable regions on human IgG1/kappa)” gave a Kd of 0.24 µM.
